# Laboratory results published in the Human Domainome abundance scans (Beltran et al. 2025).
# ± gives the uncertainty stated by the source.
# B1: POU domain, class 2, transcription factor 2, residues 200 to 269; numbered along this chain, P09086 (parent)
# chain: LEELEQFARTFKQRRIKLGFTQGDVGLAMGKLYGNDFSQTTISRFEALNLSFKNMCKLKPLLEKWLNDAE
# Variants of: B1
# Assay: abundance fitness (aPCA) (normalised: wild type 0, dead -1); higher = more abundant; growth selection in yeast, the domain comes from the species named
# Settings: Homo sapiens
row,Variant,abundance fitness
1,LEELEQFARTFKQRRIKLGFTQGDVGLAMGKLYGNDFSQTTISRFEALNLSFKNMCKLKPLLEKKLNDAE,-0.716 ± 0.16
2,LEELEQFARTFKQRRIKLGFTQGDVGLAMGKLYGNDFSQTTISRFEALNLSFKNMCKLKPLLEKMLNDAE,-0.309 ± 0.12
3,LEELEQFARTFKQRRIKLGFTQGDVGLAMGKLYGNDFSQTTISRFEALNLSFKNMCKLKPLLEKPLNDAE,-0.433 ± 0.15
4,LEELEQFARTFKQRRIKLGFTQGDVGLAMGKLYGNDFSQTTISRFEALNLSFKNMCKLKPLLEKQLNDAE,-0.843 ± 0.18
5,LEELEQFARTFKQRRIKLGFTQGDVGLAMGKLYGNDFSQTTISRFEALNLSFKNMCKLKPLLEKRLNDAE,-0.628 ± 0.066
6,LEELEQFARTFKQRRIKLGFTQGDVGLAMGKLYGNDFSQTTISRFEALNLSFKNMCKLKPLLEKSLNDAE,-0.522 ± 0.11
7,LEELEQFARTFKQRRIKLGFTQGDVGLAMGKLYGNDFSQTTISRFEALNLSFKNMCKLKPLLEKTLNDAE,-0.362 ± 0.061
8,LEELEQFARTFKQRRIKLGFTQGDVGLAMGKLYGNDFSQTTISRFEALNLSFKNMCKLKPLLEKVLNDAE,-0.198 ± 0.065
9,LEELEQFARTFKQRRIKLGFTQGDVGLAMGKLYGNDFSQTTISRFEALNLSFKNMCKLKPLLEKYLNDAE,-0.128 ± 0.093
10,LEELEQFARTFKQRRIKLGFTQGDVGLAMGKLYGNDFSQTTISRFEALNLSFKNMCKLKPLLEKWANDAE,0.001 ± 0.056
11,LEELEQFARTFKQRRIKLGFTQGDVGLAMGKLYGNDFSQTTISRFEALNLSFKNMCKLKPLLEKWCNDAE,0.025 ± 0.084
12,LEELEQFARTFKQRRIKLGFTQGDVGLAMGKLYGNDFSQTTISRFEALNLSFKNMCKLKPLLEKWDNDAE,-0.358 ± 0.18
13,LEELEQFARTFKQRRIKLGFTQGDVGLAMGKLYGNDFSQTTISRFEALNLSFKNMCKLKPLLEKWENDAE,-0.409 ± 0.077
14,LEELEQFARTFKQRRIKLGFTQGDVGLAMGKLYGNDFSQTTISRFEALNLSFKNMCKLKPLLEKWFNDAE,-0.27 ± 0.11
15,LEELEQFARTFKQRRIKLGFTQGDVGLAMGKLYGNDFSQTTISRFEALNLSFKNMCKLKPLLEKWGNDAE,-0.38 ± 0.046
16,LEELEQFARTFKQRRIKLGFTQGDVGLAMGKLYGNDFSQTTISRFEALNLSFKNMCKLKPLLEKWHNDAE,-0.526 ± 0.36
17,LEELEQFARTFKQRRIKLGFTQGDVGLAMGKLYGNDFSQTTISRFEALNLSFKNMCKLKPLLEKWINDAE,0.03 ± 0.11
18,LEELEQFARTFKQRRIKLGFTQGDVGLAMGKLYGNDFSQTTISRFEALNLSFKNMCKLKPLLEKWMNDAE,-0.027 ± 0.057
19,LEELEQFARTFKQRRIKLGFTQGDVGLAMGKLYGNDFSQTTISRFEALNLSFKNMCKLKPLLEKWPNDAE,-0.719 ± 0.3
20,LEELEQFARTFKQRRIKLGFTQGDVGLAMGKLYGNDFSQTTISRFEALNLSFKNMCKLKPLLEKWQNDAE,-0.358 ± 0.076

row,Variant,abundance fitness
1,LEELEQFARTFKQRRIKLGFTQGDVGLAMGKLYGNDFSQTTISRFEALNLSFKNMCKLKPLLEKWRNDAE,-0.837 ± 0.079
2,LEELEQFARTFKQRRIKLGFTQGDVGLAMGKLYGNDFSQTTISRFEALNLSFKNMCKLKPLLEKWSNDAE,-0.238 ± 0.043
3,LEELEQFARTFKQRRIKLGFTQGDVGLAMGKLYGNDFSQTTISRFEALNLSFKNMCKLKPLLEKWTNDAE,-0.355 ± 0.081
4,LEELEQFARTFKQRRIKLGFTQGDVGLAMGKLYGNDFSQTTISRFEALNLSFKNMCKLKPLLEKWVNDAE,0.007 ± 0.045
5,LEELEQFARTFKQRRIKLGFTQGDVGLAMGKLYGNDFSQTTISRFEALNLSFKNMCKLKPLLEKWWNDAE,-0.232 ± 0.058
6,LEELEQFARTFKQRRIKLGFTQGDVGLAMGKLYGNDFSQTTISRFEALNLSFKNMCKLKPLLEKWYNDAE,-0.047 ± 0.16
7,LEELEQFARTFKQRRIKLGFTQGDVGLAMGKLYGNDFSQTTISRFEALNLSFKNMCKLKPLLEKWLDDAE,-0.221 ± 0.22
8,LEELEQFARTFKQRRIKLGFTQGDVGLAMGKLYGNDFSQTTISRFEALNLSFKNMCKLKPLLEKWLYDAE,-0.497 ± 0.38
9,LEELEQFARTFKQRRIKLGFTQGDVGLAMGKLYGNDFSQTTISRFEALNLSFKNMCKLKPLLEKWLNCAE,-0.053 ± 0.066
10,LEELEQFARTFKQRRIKLGFTQGDVGLAMGKLYGNDFSQTTISRFEALNLSFKNMCKLKPLLEKWLNEAE,-0.047 ± 0.052
11,LEELEQFARTFKQRRIKLGFTQGDVGLAMGKLYGNDFSQTTISRFEALNLSFKNMCKLKPLLEKWLNFAE,0.085 ± 0.11
12,LEELEQFARTFKQRRIKLGFTQGDVGLAMGKLYGNDFSQTTISRFEALNLSFKNMCKLKPLLEKWLNHAE,-0.205 ± 0.14
13,LEELEQFARTFKQRRIKLGFTQGDVGLAMGKLYGNDFSQTTISRFEALNLSFKNMCKLKPLLEKWLNIAE,-0.22 ± 0.088
14,LEELEQFARTFKQRRIKLGFTQGDVGLAMGKLYGNDFSQTTISRFEALNLSFKNMCKLKPLLEKWLNKAE,-0.015 ± 0.044
15,LEELEQFARTFKQRRIKLGFTQGDVGLAMGKLYGNDFSQTTISRFEALNLSFKNMCKLKPLLEKWLNPAE,-0.349 ± 0.03
16,LEELEQFARTFKQRRIKLGFTQGDVGLAMGKLYGNDFSQTTISRFEALNLSFKNMCKLKPLLEKWLNQAE,-0.063 ± 0.079
17,LEELEQFARTFKQRRIKLGFTQGDVGLAMGKLYGNDFSQTTISRFEALNLSFKNMCKLKPLLEKWLNRAE,-0.022 ± 0.029
18,LEELEQFARTFKQRRIKLGFTQGDVGLAMGKLYGNDFSQTTISRFEALNLSFKNMCKLKPLLEKWLNVAE,-0.054 ± 0.043
19,LEELEQFARTFKQRRIKLGFTQGDVGLAMGKLYGNDFSQTTISRFEALNLSFKNMCKLKPLLEKWLNWAE,-0.147 ± 0.06
